B1: 1-C09-3 (antibody, V domains shown)
VH: QVQLQQPGAELVRPGTSVKLSCKASGYTFTSYWMHWVKERPGQGLEWIGVIDPSDSYTNYNQKFKDKATLTVDTSSSTAYMQLSSLTSEDSAVYYCARSPFDYWGQGTTLTVSS
VL: DIQMTQSQKFMSTSVGDRVSVTCKASQNVGTNVAWYQQKPGQSPKALIYSASYRYSGVPDRFIGSGSGTDFTLTIRNVQSEDLAEYFCQQHNSYPFTFGGGTKLEIK
notes: From the in vitro scFv library of immunised mice
B2: 1-F09-1 (antibody, V domains shown)
VH: B1 VH with L11V, R13M, T16A, E39Q, N59Q, D66G
VL: B1 VL with T5N, Q8H, V21I, N28D, G30S, N32A, Y53N, I106M
notes: as for B1
B3: 1-F12-1 (antibody, V domains shown)
VH: B1 VH with Q1E, E39Q, N59Q, D66G, L110V
VL: DIVMTQSHKFMSTSVGDRVSITCKASQDVSTAVAWYQQKPGQSPKALIYSASYRYSGVPDRFTGSGSGTDFTLTISNVQAEDLAVYYCHQHNTYPFTFGGGTKLEIK
notes: as for B1
B4: 2-D11-1 (antibody, V domains shown)
VH: B1 VH with Q1E, S21A, T30N, S31T, K38N, E39Q, N59Q, D66G
VL: B1 VL with I2V, R76S
notes: as for B1
B5: 1-H01-1 (antibody, V domains shown)
VH: B1 VH with R13K, T16A, L20M, E39Q, D55N, N59I, D66G
VL: B1 VL with I2V, Q3V, I63T
notes: From the in vitro scFv library of immunised mice; also called clone 1-H01-1
B6: 1-C09-1 (antibody, V domains shown)
VH: B1 VH with A9T, L20M, E39Q, N59Q, D66G
VL: B1 VL with Q3V, V58I, I63T, R76S, E85D, Y86F, H91Y
notes: as for B1
B7: 27A5 (antibody, V domains shown)
VH: QVTLKESGPGILQPSQTLSLTCSFSGFSLSTFGMGVGWIRQPSGKGLEWLAHIWWDADKYSTPALKSRLTISKDTSKNQVFLKIANVDTADTATYYCARIGRNYYFDYWGQGTTLTVSS
VL: DIVMTQSPSSLAVSVGEKVTLTCKSSQTLLDSTNQKNYLAWYQQIPGQSPKLLIYWASTRESGVPDRFTGSGSGTDFTLTISSVKAEDLTVYYCQQYYTYPLTFGAGTKLELK
notes: Antibody from a monoclonal hybridoma of immunised BALB/c mice
B8: 7 (antibody, V domains shown)
VH: EVQLLESGGGLVQPGGSLRLSCAASGFPFGNYLMNWVRQAPGKGLEWVSVISGGGVSTYYADSVKGRFTISRDNSKNTLYLQMNSLRAEDTAVYYCARGPSSWPAFDVWGQGTLVTVSS
VL: DIQMTQSPSSLSASVGDRVTITCRASETISNFLNWYQQKPGKAPKLLIYTTSSLQRGVPSRFSGSGSGTDFTLTISSLQPEDFATYYCQQSYSVPWTFGGGTKVEIK
notes: From phage panning of a naive antibody library; also called antibody 7; clone 7
B9: 43 (antibody, V domains shown)
VH: EVQLLESGGGLVQPGGSLRLSCAASGFTFSIHPMTWVRQAPGKGLEWVSLISTGGGSTYYADSVKGRFTISRDNSKNTLYLQMNSLRAEDTAVYYCASASVLGSGGYWSPGMDYWGQGTLVTVSS
VL: DIQMTQSPSSLSASVGDRVTITCRASQSIDRFLNWYQQKPGKAPKLLIYGASNLPSGVPSRFSGSGSGTDFTLTISSLQPEDFATYYCQQSFSIPWTFGGGTKVEIK
notes: From phage panning of a naive antibody library; also called antibody 43; clone 43
B10: E2-B5-7_201 (antibody, V domains shown)
VH: EVQLVQSGAEVKKPGATVKISCKASGYSLSDHYMHWVQQAPGKGLEWMGRIDPHSGATKYDPKFQGRVTITADTSTDTAYMELSSLRSEDTAVYYCARSGPVYHYGSSYVMDYWGQGTTVTVSS
VL: DIVMTQSPDSLAVSLGERATINCKSGQSVFYSSNNKNYLAWYQQKPGQPPKLLIYWASTRESGVPDRFSGSGSGTDFTLTISSLQAEDVAVYYCQQYLYSWTFGQGTKLEIK
B11: D4-A7-7_201 (antibody, V domains shown)
VH: B10 VH with S28I, S30T, A57G, T58I
VL: B10 VL
notes: also called clone D4-A7-7_201
B12: E2-B5-6_201 (antibody, V domains shown)
VH: B10 VH with Y103H, H104Y
VL: B10 VL
B13: E2-B5-7_211 (antibody, V domains shown)
VH: B10 VH
VL: B10 VL with S58D

Positions count from the first letter of the chain named.

In the first experiment the target is T1, Programmed cell death protein 1 (PD-1), human (human, UniProt Q15116 25-167, limits assumed).
T1 construct: also called full-length PD-1
T1 sequence (Q15116 25-167 limits assumed): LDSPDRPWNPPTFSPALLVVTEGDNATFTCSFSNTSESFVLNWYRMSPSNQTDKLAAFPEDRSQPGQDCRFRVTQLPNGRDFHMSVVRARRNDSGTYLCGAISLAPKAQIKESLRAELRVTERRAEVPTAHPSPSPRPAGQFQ
Briefly: SPR avidity, column 'Avidity (nM)' of the drawn table.
B1 registered a Kd of 0.77 nM.

Regarding B2, the Kd turned out to be 0.46 nM.

Molecule B3 showed a Kd of 0.98 nM.

Consider B4, for which the Kd was 0.96 nM.

B5 returned a Kd of 0.44 nM.

For B6, the Kd was 3.7 nM.

In a further experiment the target is T1, Programmed cell death protein 1 (PD-1), …. Briefly: cell-based or functional assay.
Consider B1, for which the “PD-1 agonism EC50, PathHunter Checkpoint Signaling Assay” value (from here on “PD-1 agonism EC50”) is 1.1 nM.

Take B2: the “PD-1 agonism EC50” value amounted to 1.1 nM.

As to B3, the “PD-1 agonism EC50” value was found to be 1.6 nM.

With B4, the “PD-1 agonism EC50” value stood at 1.2 nM.

For the molecule B5, the “PD-1 agonism EC50” value was 0.9 nM.

As to B6, the “PD-1 agonism EC50” value was 1.4 nM.

The target is the same in another experiment. Briefly: SPR, PD-1 binding (FIG. 2B); SPR affinity format, FIG. 2B. A general note: In SPR one partner is held on a chip, and binding of the other changes the refractive index at the surface.
In the case of B7, the Kd worked out at 55 nM.

Another experiment has the same target. Briefly: SPR affinity measurement, response in nm, four traces.
On to B1, for which the Kd is 84 nM.

Regarding B2, the Kd was 13 nM.

B3 returned a Kd of 21 nM.

Consider B4, for which the Kd was 15 nM.

Turning to B5, the Kd was found to be 78 nM.

For B6, the Kd was found to be 150 nM.

For another experiment the target is unchanged. Briefly: SPR on PD-1, sensorgrams at three concentrations with fit.
B8 showed a Kd of 16 nM.

B9 displayed a Kd of 6.3 nM.

A further experiment shares this target. Briefly: SPR on PD-1, sensorgrams at five concentrations with fit.
Turning to B10, the Kd came to 1.2 nM.

As for B11, the Kd was determined as 1.1 nM.

B12 displayed a Kd of 0.71 nM.

In turn, B13 registered a Kd of 0.695 nM.

The next experiment shares this target. Briefly: SPR avidity measurement (mimic cell surface PD-1 clusters), response in nm, three traces.
Take B1: the Kd came out at 0.77 nM.

Take B2: the Kd was found to be 0.46 nM.

The molecule B3 had a Kd of 0.98 nM.

In turn, B4 displayed a Kd of 0.96 nM.

In turn, B5 yielded a Kd of 0.44 nM.

With B6, the Kd worked out at 3.7 nM.

Another experiment has the same target. Briefly: SPR affinity, column 'Affinity (nM)' of the drawn table.
Regarding B1, the Kd is 84 nM.

In the case of B2, the Kd came to 13 nM.

Turning to B3, the Kd came to 21 nM.

Take B4: the Kd came out at 15 nM.

Consider B5, for which the Kd was 78 nM.

B6: the Kd came to 150 nM.

For another experiment the target is unchanged. Briefly: SPR, PD-1 avidity (FIG. 2C); SPR avidity format, FIG. 2C.
B7 returned a Kd of 0.005 nM.

Values taken from patent US20240092909A1 (IBIO, published 2024).
